Sequences and labels used below:
B1: Hairpin Ribozyme (parent)
chain: GUCCUCUUUCACGUGCGCGUGAAAGAGAGAAGUGAACCAGAGAAACACACGUUGUGGUAUAUUACCUGGUA

From the RNAGym collection of RNA variant scans (doi:10.7554/elife.80360) come the findings set out here.

The variants in the data set derive from B1. Put plainly: self-cleavage, relative activity (ratio to wild type); higher = more cleavage; co-transcriptional.
As to GUCCUCUUUCAAGUGCGCGUGAAAGAGAGAAGUGAACCAUAGAAACACACGUUGUGGUAUAUUACCUGGUA [C12A G40U], the self-cleavage stood at 0.186.
Then GUCCUCUUUCAAGUGCGCGUGAAAGAGAGAAGUGAACCAGAGAAACACAAGUUGUGGUAUAUUACCUGGUA [C12A C50A], with 0.231; and GUCCUCUUUCAAGUGCGCGUGAAAGAGAGAAGUGAACCAGAGAAACACAGGUUGUGGUAUAUUACCUGGUA [C12A C50G], with 0.389.
For GUCCUCUUUCUCGUGCGCGUGAAAGAGAGAAGUGAACCAGAGAAACACACGUUGUGGUAUAUGACCUGGUA [A11U U63G], the self-cleavage is 0.175.
As for GUCCUCUUUCUCGUGCGCGUGAAAGAGAGAAGUGAACCAGAGAAACACACGUUGUGGUAUAGUACCUGGUA [A11U U62G], the self-cleavage came to 0.0971.
GUCCUCUUUCAAGUGCGCGUGAAAGAGAGAAGUGAACCAGAGAAACACACGUUGUGGUAUAUUAGCUGGUA [C12A C65G]: the self-cleavage is 0.282.
With GUCCUCUUUCUCGUGCGCGUGAAAAAGAGAAGUGAACCAGAGAAACACACGUUGUGGUAUAUUACCUGGUA [A11U G25A] the figure was 0.402; with GUCCUCUUUCUCGUGCGCGUGAAAUAGAGAAGUGAACCAGAGAAACACACGUUGUGGUAUAUUACCUGGUA [A11U G25U], 0.568; with GUCCUCUUUCAAGUGCGCGUGAUAGAGAGAAGUGAACCAGAGAAACACACGUUGUGGUAUAUUACCUGGUA [C12A A23U], 0.671.
Regarding GUCCUCUUUCAAGUGCGCGUGAGAGAGAGAAGUGAACCAGAGAAACACACGUUGUGGUAUAUUACCUGGUA [C12A A23G], the self-cleavage amounted to 0.677.
Regarding GUCCUCUUUCAAGUGCGCGUGAAAGAGAGAAAUGAACCAGAGAAACACACGUUGUGGUAUAUUACCUGGUA [C12A G32A], the self-cleavage turned out to be 0.178.
Turning to GUCCUCUUUCAAGUGCGCGUGAAAGAGAGAAUUGAACCAGAGAAACACACGUUGUGGUAUAUUACCUGGUA [C12A G32U], the self-cleavage was 0.114.
Then GUCCUCUUUCUCGUGCGCUUGAAAGAGAGAAGUGAACCAGAGAAACACACGUUGUGGUAUAUUACCUGGUA [A11U G19U], with 0.815; and GUCCUCUUUCUCGAGCGCGUGAAAGAGAGAAGUGAACCAGAGAAACACACGUUGUGGUAUAUUACCUGGUA [A11U U14A], with 0.796; and GUCCUCUUUCAAGUGCGCGUGAAAGAGAGAAGUGAACCAGAUAAACACACGUUGUGGUAUAUUACCUGGUA [C12A G42U], with 0.301.
Consider GUCCUCUUUCAAGUGCGCGUGAAAGAGAGAAGUGAACCAGACAAACACACGUUGUGGUAUAUUACCUGGUA [C12A G42C], for which the self-cleavage came to 0.272.
For GUCCUCUUUCAAGUGCGCGUGAAAGAGAGAAGUGCACCAGAGAAACACACGUUGUGGUAUAUUACCUGGUA [C12A A35C], the self-cleavage stood at 0.978.
Then GUCCUCUUUCAAGUGCGCGUGAAAGAGAGAAGUGGACCAGAGAAACACACGUUGUGGUAUAUUACCUGGUA [C12A A35G], with 0.914; and GUCCUCUUUCAAGUGCGCGUGAAAGAGAGCAGUGAACCAGAGAAACACACGUUGUGGUAUAUUACCUGGUA [C12A A30C], with 0.159.
With GUCCUCUUUCUCGUGCGCGUGAAAGAGAGAAGUGAACCAGAGAAACACACGUUGUGGUAUAUUACCAGGUA [A11U U67A] the figure was 0.117.
GUCCUCUUUCUCGUGCGCGUGAAAGAGAGAAGUGAACCAGAGAAACACACGUUGUGGUAUAUUACCCGGUA [A11U U67C]: the self-cleavage stood at 0.223.
For GUCCUCUUUCAAGUGCGCGUGAAAGAGAGAAGUGAACCAGAGAAACACACGUUGUGGUAUAUUACCUGGUU [C12A A71U], the self-cleavage is 0.701.
GUCCUCUUUCAAGUGCGCGUGAAAGAGAGAAGUGAACCAGAGAAACACACGUUGUGGUAUAUUACCUGGUC [C12A A71C]: the self-cleavage stood at 1.26.
Then GUCCUCUUUCAAGUGCGCGUGAAAGAGAGAAGUGAACCAGAGAAACACACGUUGUGGUAUCUUACCUGGUA [C12A A61C], with 0.239; and GUCCUCUUUCAAGUGCGCGUGAAAGAGAGAAGUGAACCAGAGAAACACACGUUGUGGUAUUUUACCUGGUA [C12A A61U], with 0.169.
As for GUCCUCUUUCAAGUGCGCGUGAAAGAGAGAAGUGAACCAGCGAAACACACGUUGUGGUAUAUUACCUGGUA [C12A A41C], the self-cleavage is 1.05.
For the variant GUCCUCUUUCAAGUGCGCGUGAAAGAGAGAAGUGAACCAGUGAAACACACGUUGUGGUAUAUUACCUGGUA [C12A A41U], the self-cleavage came to 1.13.
Then GUCCUCUUUCAAGUGCGCGUGAAAGAGAGAGGUGAACCAGAGAAACACACGUUGUGGUAUAUUACCUGGUA [C12A A31G], with 0.468; and GUCCUCUUUCAAGUGCGCGUGAAAGAGAGACGUGAACCAGAGAAACACACGUUGUGGUAUAUUACCUGGUA [C12A A31C], with 0.117; and GUCCUCUUUCUCGUGCGCGUGAAAGAGAAAAGUGAACCAGAGAAACACACGUUGUGGUAUAUUACCUGGUA [A11U G29A], with 0.137.
Regarding GUCCUCUUUCAAGUGCGCGUGAAAGGGAGAAGUGAACCAGAGAAACACACGUUGUGGUAUAUUACCUGGUA [C12A A26G], the self-cleavage stood at 0.766.
Regarding GUCCUCUUUCAAGUGCGCGUGAAAGUGAGAAGUGAACCAGAGAAACACACGUUGUGGUAUAUUACCUGGUA [C12A A26U], the self-cleavage turned out to be 0.522.
Consider GUCCUCUUUCAAGUGCGCGUGAAAGACAGAAGUGAACCAGAGAAACACACGUUGUGGUAUAUUACCUGGUA [C12A G27C], for which the self-cleavage is 0.0872.
In the case of GUCCUCUUUCAAGUGCGCGUGAAAGAGAGAAGUGAACCAGAGAAACACACGUUGUAGUAUAUUACCUGGUA [C12A G56A], the self-cleavage worked out at 0.182.
With GUCCUCUUUCAAGUGCGCGUGAAAGAGAGAAGUGAACCAGAGAAAUACACGUUGUGGUAUAUUACCUGGUA [C12A C46U], the self-cleavage came out at 0.119.
Consider GUCCUCUUUCAAGUGCGCGUGAAAGAGAGAAGUGAACCAGAGAAAAACACGUUGUGGUAUAUUACCUGGUA [C12A C46A], for which the self-cleavage was found to be 0.202.
Regarding GUCCUCUUUCUCGUGCGCGUGAAAGAGAGAAGUGAACCAGAGAAACACACGUUGUGGUACAUUACCUGGUA [A11U U60C], the self-cleavage came to 1.18.
As for GUCCUCUUUCAAGUGCGCGUGAAAGAGAGAAGUGAAUCAGAGAAACACACGUUGUGGUAUAUUACCUGGUA [C12A C37U], the self-cleavage stood at 0.578.
